Each substance was assayed against microtubule (assay: optical trap binding-time assay; kinesin held by its C-terminal His tag on a polystyrene bead (0.56 um, streptavidin with biotinylated penta-His antibody), at most one motor per bead, trapped 0, 20, 40 or 60 nm from a surface-attached microtubule; binding time = time from unbinding to the next detectable bead displacement (>15 nm); room temperature; motility buffer (80 mM Pipes pH 6.9, 50 mM CH3COOK, 4 mM MgSO4, 1 mM DTT, 1 mM EGTA, 10 uM taxol, 1 mg/mL casein) with 2 mM ATP and an oxygen-scavenging system; the rates of Table 1 are fits of Brownian dynamics models to the mean binding times of all three motor lengths together).

binding time (plateau at close distances) [s]	koff^ADP,fast (rate of the weak-to-strong binding transition on the microtubule; diffusion with ADP state model) [s⁻¹]	koff^MT (unbinding from the weakly bound state, at zero force; diffusion with ADP state model) [s⁻¹]	kon^MT (microscopic first-order binding rate when the head is within 5 nm of the microtubule; diffusion with ADP state model) [s⁻¹]	kon^MT (microscopic first-order binding rate; simple diffusion model) [s⁻¹]	Substance
1	2.12	0.2	70.7	80.6	DK-406-His (Drosophila Kinesin aa 1-406; His tag at c-term) (from UniProt P17210 1-406) (domain or fragment)
1	2.12	0.2	70.7	80.6	DK-560-His (Kinesin-1, aa 1-560; His tag at c-term) (from UniProt P17210 1-560) (domain or fragment)
1	2.12	0.2	70.7	80.6	DK-746-His (Drosophila Kinesin aa 1-746; His tag at c-term) (from UniProt P17210 1-746) (domain or fragment)

Source: paper PMC11142708
